Experimental data published in patent US20220387578A1 (VANDERBILT UNIVERSITY, published 2022).

T1: eHead_H1_v3.1_mC
T1 chain: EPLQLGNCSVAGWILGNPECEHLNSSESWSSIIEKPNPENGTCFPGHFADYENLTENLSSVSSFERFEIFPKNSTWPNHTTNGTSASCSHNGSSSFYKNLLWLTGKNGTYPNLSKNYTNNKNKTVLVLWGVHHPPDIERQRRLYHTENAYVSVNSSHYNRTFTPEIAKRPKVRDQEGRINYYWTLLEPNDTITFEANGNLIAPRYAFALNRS

B1: FluA20_UCA (as used in the SPR experiments of Example 4) (antibody, V domains shown)
VH: QVQLQESGPGLVKPSETLSLTCTVSGGSVSSGSYYWSWIRQPPGKGLEWIGYIYYSGSTNYNPSLKSRVTISVDTSKNQFSLKLSSVTAADTAVYYCARGTEDLGYCSGGSCPNHWGQGTLVTVSS
VL: not shown
B2: FluA20 (as used in the SPR experiments of Example 4) (antibody, V domains shown)
VH: QVQLQESGPGLVKPSETLSLTCSVSGVSVTSDIYYWTWIRQPPGKGLEWIGYIFYNGDTNYNPSLKSRVTMSIDTSKNEFSLRLTSVTAADTAVYFCARGTEDLGYCSSGSCPNHWGQGTLVTVSS
VL: DIQMTQSPSSLSASIGDRVTITCRPSQNIRSFLNWFQHKPGKAPKLLIYAASNLQSGVPSRFSGSGSGTEFTLTIRSLQPEDFATYYCQQSYNTPPTFGQGTKVEIK

Target: T1, eHead_H1_v3.1_mC
Assay: SPR

Binder | Kd
B1 | 220 nM
B2 | 2.8 nM
